Assay results from the supplement of paper PMC10567573.

B1: ZNF207 (parent)
chain: FQPQPVQPQQGYIPPMAQPGLPPV
B2: WDFY1 (parent)
chain: LLIPKEDGVITASEDRTIRVWLKR

Variants of: B1
Assay: protein stability index of a GFP-peptide fusion (GPS, HEK-293T) (PSI 1-6); higher = more stable
Conditions: c terminus: a fixed tail appended
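Further: lentivirally expressed fusions sorted by FACS into six bins by GFP to DsRed ratio, PSI derived from sequencing read proportions per bin multiplied by bin number.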

Protein stability index, by site and new letter:
P19: G 3.12, S 3.19, C 3.1, H 3.19, A 3.32, L 2.7, F 2.38
A17: R 3.15, C 3.27, Q 3.39, P 3.04, M 3.4, L 2.85, Y 2.25, V 2.96, F 2.5, T 3.22, S 3.86, H 3.12, G 2.98, D 3.35, K 3.04, N 3.59, W 1.93, I 3.17, E 3.42
V24: E 3.75, L 2.44, W 1.8, F 2.35, M 2.8, G 3.1, R 3.38, H 2.71, Y 2.4, I 3.26, D 3.9, Q 3.33, K 2.92, S 2.93, N 2.67, C 2.95
M16: W 2.06, N 3.48, D 3.7, G 3.49, R 2.97, S 3.5, Y 2.82, K 3.21, V 3.64, I 3.3, F 2.43, E 3.54
P22: M 2.4, K 3.4, Y 2.29, L 2.99, T 2.7, H 2.83, R 2.88, S 2.13, I 2.68, Q 3.33, G 2.74, N 2.74, F 2.54, W 1.85, D 3.06, E 3.08, V 2.72, C 2.38, A 3.37
Q18: N 3.11, K 2.88, L 2.91, M 2.7, W 2.03, S 2.95, R 3.37, C 2.37
G20: K 2.27, M 2.75, S 3.24, Q 3.46, R 3.33, L 3.15, V 3.72, W 1.7, E 3.23, D 2.89, C 2.93
P23: L 3.04, E 3.07, W 1.7, R 3.02, C 2.91, S 3.19, F 1.88, I 2.65, A 3.4, V 3.13, K 2.95, T 2.89, M 2.9, Y 2.42, H 2.77, N 2.69, Q 3.14, G 2.27, D 3.28
L21: F 2.66, D 4.12, K 3.48, W 2.26, V 2.73, E 4.13, M 3.68, R 3.38, C 3.64, G 3.24

Variants of: B2
Assay: as above
Conditions: c terminus: a fixed tail appended

Protein stability index: each site, then its substitutions
T11: N 1.82, M 1.5, Q 1.72, S 2.42, C 2.7, I 2.15, P 2.65, F 2.4, R 3.1, H 2.56, V 2.19, W 1.72, K 2.03, A 2.43, E 2.26, G 1.98
G8: M 1.14, I 1.41, E 1.31, C 2.23, R 2.3, S 1.95, T 2.55, D 2.27, N 2.07, W 1.94, K 1.99, F 1.48, Y 1.74, L 1.03, H 1.78, P 2.41, Q 1.58, V 1.58
A12: F 1.91, Y 2.66, S 1.71, H 2.08, N 2.56, G 1.93, I 1.92, P 2.76, K 2.19, Q 2.18, L 2.1, D 2.39, C 1.77
D7: E 3.03, W 1.33, G 1.77, Q 2.1, N 1.58, L 2.05, M 1.44, C 1.75, I 1.28, P 1.66, K 1.56, H 1.42, F 2.7, A 2.06, Y 1.3, T 2.37, S 1.39, V 1.8
I10: Q 2.62, C 1.94, N 2.54, G 2.76, A 2.4, E 2.68, D 2.83, L 2.21, R 2.07, S 2.07, P 4.2, F 2.42, M 2.14, H 1.94, K 2.17, Y 1.91, T 2.47
K5: A 2.13, C 2.26, H 1.65, D 2.41, I 2.28, L 1.36, S 1.2, F 1.4, Y 2.91, T 1.62, G 3.24, Q 1.57, R 1.44, W 1.41, N 2.15, E 1.58
I3: K 3.17, W 1.87, C 2.24, D 3.09, G 2.97, T 2.91, R 2.71, L 2.76, N 3.77, Q 2.66, H 2.45, F 2.04, A 3.62, E 3.36, Y 1.89, M 1.95
V9: M 2.21, G 2.4, R 2.33, Y 1.02, T 2.14, H 2.48, A 2.58, W 2.22, S 2.74, N 2.44, C 1.65, I 2.77, Q 2.56, P 3.22, F 1.81, E 2.6, K 1.69
L1: D 3.54, A 2.5, P 4.03, V 2.56, K 2.74, W 1.73, N 3.1, Q 2.94, I 2.1, M 3.12, T 3.62, S 2.93, C 2.35, R 2.73, F 2.24, Y 2.55, E 3.2, H 2.83
P4: H 1.75, R 2.46, W 2.35, V 2.67, M 1.88, L 1.79, F 2.78, Q 1.5, I 1.52, A 2.13, N 2.19, Y 1.51, S 2.54, G 1.74, C 2.28, D 2.82, T 1.89
E6: V 1.42, S 2.06, M 2.65, Q 3.73, G 2.56, I 1.98, P 2.43, L 3.18, F 2.25, R 1.63, K 2.18, N 2.58, W 1.66, C 2.67, T 1.77, A 2.59, H 2.67, D 2.82, Y 2.4
S13: A 1.56, D 2.53, K 2.06, H 1.91, L 2.15, E 1.5, C 1.51, G 2.42, I 2.57
L2: C 2.5, Y 1.82, W 1.76, M 2.27, T 2.08, Q 3.1, F 1.25, E 3.8, S 2.78, V 2.69, R 1.93, I 2.22, N 2.77, P 2.66, K 3.31, A 2.88, G 2.37, H 1.68, D 3.47
